Laboratory results reported in US5705398A, “Methods for identifying inhibitors of LPS-mediated LBP binding” (The Scripps Research Institute, priority 1994, dated 1998).

How the values were obtained:
[1] = target: T1, CD14 (Homo sapiens, UniProt P08571); test: Competition of non-fluoresceinated LPS with F-LPS in LBP/CD14 binding assay; details: similar to FIG. 3 with Re595 LPS
T1 construct: made in house; host or cells: CHO cells (clone 523, vector pEE14), secreted into culture medium
T1 sequence (P08571 20-375): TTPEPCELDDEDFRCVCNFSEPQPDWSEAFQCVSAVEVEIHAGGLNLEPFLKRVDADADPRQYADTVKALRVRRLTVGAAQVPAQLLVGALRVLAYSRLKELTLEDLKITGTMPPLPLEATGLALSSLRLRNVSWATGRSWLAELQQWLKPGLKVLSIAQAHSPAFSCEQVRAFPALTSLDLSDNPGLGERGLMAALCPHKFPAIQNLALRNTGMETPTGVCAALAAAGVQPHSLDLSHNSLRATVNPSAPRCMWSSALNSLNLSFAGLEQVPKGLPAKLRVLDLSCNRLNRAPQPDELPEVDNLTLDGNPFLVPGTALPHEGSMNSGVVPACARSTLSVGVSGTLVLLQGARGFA

[2] = target: T2, LPS-Binding Protein (LBP) (Oryctolagus cuniculus, UniProt P17454); test: Fluorescence spectroscopy assay of F-LPS binding to LBP; set-up: species or system rabbit; details: for fluorescence intensity, +LBP (F-LPS+peptide+LBP): 10 ng/ml F-LPS + 1 mM polypeptide + 1 ug/ml rabbit LBP, no-peptide control 2700 (Experiment A, peptides 1-4), 2300 (Experiment B, peptides 5-8); for fluorescence intensity, +peptide (F-LPS+peptide): 10 ng/ml F-LPS + 1 mM polypeptide, before LBP; for fluorescence intensity, +F-LPS (F-LPS alone): 10 ng/ml F-LPS in PBS/2 mM EDTA pH 7.4, before peptide addition (baseline of the run); for inhibition of LPS binding to LBP (in words): 1 mM polypeptide, from Table 3
T2 construct: isolated from acute phase rabbit serum; from tissue; host or cells: acute phase rabbit serum
T2 sequence (P17454 27-482): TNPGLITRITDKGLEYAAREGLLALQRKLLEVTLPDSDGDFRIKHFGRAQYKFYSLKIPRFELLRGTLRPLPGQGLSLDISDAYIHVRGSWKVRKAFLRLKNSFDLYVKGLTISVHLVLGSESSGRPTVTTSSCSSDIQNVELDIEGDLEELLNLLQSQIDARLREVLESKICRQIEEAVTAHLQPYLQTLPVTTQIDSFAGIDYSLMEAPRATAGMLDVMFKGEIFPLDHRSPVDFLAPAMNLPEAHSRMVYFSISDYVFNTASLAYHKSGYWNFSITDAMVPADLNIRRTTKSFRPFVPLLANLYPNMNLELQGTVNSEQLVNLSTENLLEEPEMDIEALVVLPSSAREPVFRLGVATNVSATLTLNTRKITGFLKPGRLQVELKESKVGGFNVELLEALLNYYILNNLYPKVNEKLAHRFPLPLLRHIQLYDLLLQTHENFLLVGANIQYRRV
Method: The fluorescence spectroscopy assay method detects the intensity of fluorescence of fluoresceinated LPS in the presence of LBP.
The assay reaction admixture was prepared by admixing 10 ng/ml F-LPS and 1 ug/ml rabbit LBP into a solution of phosphate buffered saline (PBS) containing 2 mM EDTA, pH 7.4. The FI was then measured with an SLM 8000 photon counting spectrophotometer (SLM, Urbana, Ill.). A continuous FI output was measured over time while first the F-LPS was added to the PBS/EDTA solution, and then the LBP was added.
To study the effect of an LBP-derived polypeptide upon the effect of LBP on the FI of F-LPS, a polypeptide was added to the assay admixture at a concentration of 1 mM polypeptide prior to the addition of LBP, which was typically added about 30 to 150 seconds after the polypeptide was added to the admixture.

[3] = target: T1, CD14; test: Fluorescence spectroscopy assay of F-LPS binding to soluble CD14 in presence of LBP, with peptides; details: for fluorescence intensity, +CD14: 10 ug/ml soluble CD14 added before LBP, no-peptide control 1500; for fluorescence intensity, +LBP: F-LPS + polypeptide + 10 ug/ml sCD14 + 40 ng/ml rabbit LBP, no-peptide control 6300; for inhibition of fluorescence of F-LPS / LPS binding to LBP in presence of LBP and CD14 (in words): from Table 4
Method: (§1) The fluorescence spectroscopy assay method also detects the intensity of fluorescence of fluoresceinated LPS in the presence of LBP and soluble CD14.
(§2) The assay to measure binding interactions between CD14 and LPS or LPS-LBP complex was conducted essentially as described in Example 1 with the following exceptions. First, the amount of rabbit LBP in the reaction admixture was 40 ng/ml. Second, soluble CD14 (sCD14) prepared as described in Example 2A was added to the reaction admixture at a concentration of 10 ug/ml prior to addition of the LBP to the reaction admixture. Peptides 6, 7 and 8, whose sequences are shown in Table 2, were each separately added to assay reaction admixtures, and the resulting FI was measured.

[4] = system: Human CD14; test: as above; details: for fluorescence intensity, +peptide (F-LPS+peptide): F-LPS + polypeptide, before CD14 and LBP; for fluorescence intensity, +F-LPS (F-LPS alone): before peptide addition (baseline of the run)
Method: as §1, §2

[5] = target: T3, recombinant human soluble CD14 (Homo sapiens, UniProt P08571); test: F-LPS/CD14 fluorescence assay comparing LBP with other LPS-binding proteins; details: 20 ng/ml F-LPS; for effect on FI of F-LPS with CD14 when replacing LBP: protein 300 ng/ml, CD14 0 to 10 ug/ml
T3 construct: made in house; host or cells: CHO cells (clone 523, vector pEE14), secreted into culture medium
T3 sequence (P08571 20-375): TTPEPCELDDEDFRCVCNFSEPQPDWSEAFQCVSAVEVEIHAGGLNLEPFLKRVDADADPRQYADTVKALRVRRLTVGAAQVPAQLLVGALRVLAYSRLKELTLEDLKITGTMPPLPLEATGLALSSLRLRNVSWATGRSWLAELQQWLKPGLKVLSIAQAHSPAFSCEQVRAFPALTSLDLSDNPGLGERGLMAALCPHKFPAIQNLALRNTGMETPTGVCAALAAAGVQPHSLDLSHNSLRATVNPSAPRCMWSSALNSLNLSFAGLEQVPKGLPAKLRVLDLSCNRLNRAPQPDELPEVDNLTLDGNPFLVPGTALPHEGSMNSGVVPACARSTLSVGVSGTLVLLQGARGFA
Method: For the assay, LBP or the other known LPS-binding proteins were added to the admixture at a concentration of 300 nanograms/milliliter (ng/ml) and were separately admixed with varying amounts the recombinant human soluble CD14 ranging in concentration from 0 to 10 micrograms/milliliter (ug/ml).
To this admixture, 20 ng/ml of F-LPS prepared in Example 1 were admixed to form a binding admixture. Fluorescence measurements were then performed as described above to determine the effect of LBP and CD14 on the FI of F-LPS.

| Molecule | fluorescence intensity, +LBP (F-LPS+peptide+LBP) [2] | fluorescence intensity, +peptide (F-LPS+peptide) [2] | fluorescence intensity, +F-LPS (F-LPS alone) [2] | inhibition of LPS binding to LBP (in words) [2] | also measured |
| --- | --- | --- | --- | --- | --- |
| CCCCCCCCCCC[C@@H](O)CC(=O)N[C@H]1[C@H](OC[C@H]2O[C@H](OP(=O)(O)O)[C@H](NC(=O)C[C@H](O)CCCCCCCCCCC)[C@@H](OC(=O)C[C@H](O)CCCCCCCCCCC)[C@@H]2O)O[C@H](CO)[C@@H](OP(=O)(O)O)[C@@H]1OC(=O)C[C@H](O)CCCCCCCCCCC [lipid IVa] |  |  |  |  | inhibition of FI increase by non-fluoresceinated LPS preparations (in words) [1]: dose dependent inhibition |
| ATLTLNTRKIT [Peptide 7] | 1300 FIU | 1600 FIU | 800 FIU | strongly inhibit LPS binding to LBP | fluorescence intensity, +CD14 [3]: 2000 FIU; fluorescence intensity, +LBP [3]: 1500 FIU; inhibition of fluorescence of F-LPS / LPS binding to LBP in presence of LBP and CD14 (in words) [3]: strongly inhibit LPS binding to LBP; fluorescence intensity, +peptide (F-LPS+peptide) [4]: 2400 FIU; fluorescence intensity, +F-LPS (F-LPS alone) [4]: 1200 FIU |
| CSSDIQNVELDIEGDLEELLNLLQSQIDARLREVLESKI [Peptide 3] | 2100 FIU | 1300 FIU | 800 FIU | weakly inhibit LPS binding to LBP |  |
| GIDYSLMEAPRATA [Peptide 5] | 2000 FIU | 750 FIU | 750 FIU |  |  |
| KVRKAFLRLKNSFDL [Peptide 2] | 800 FIU | 800 FIU | 900 FIU | strongly inhibit LPS binding to LBP |  |
| LQPYLQTLPVTTQIDS [Peptide 4] | 2300 FIU | 900 FIU | 800 FIU |  |  |
| PSSAREPVFRLGVAT [Peptide 6] | 1500 FIU | 800 FIU | 750 FIU | strongly inhibit LPS binding to LBP | fluorescence intensity, +CD14 [3]: 1300 FIU; fluorescence intensity, +LBP [3]: 3500 FIU; inhibition of fluorescence of F-LPS / LPS binding to LBP in presence of LBP and CD14 (in words) [3]: strongly inhibit LPS binding to LBP; fluorescence intensity, +peptide (F-LPS+peptide) [4]: 1300 FIU; fluorescence intensity, +F-LPS (F-LPS alone) [4]: 1200 FIU |
| QTHENFLLVGANIQYRRV [Peptide 8] | 2300 FIU | 800 FIU | 700 FIU |  | fluorescence intensity, +CD14 [3]: 1500 FIU; fluorescence intensity, +LBP [3]: 5400 FIU; fluorescence intensity, +peptide (F-LPS+peptide) [4]: 1400 FIU; fluorescence intensity, +F-LPS (F-LPS alone) [4]: 1400 FIU |
| TNPGLITRITDKGL [Peptide 1] | 2400 FIU | 900 FIU | 900 FIU |  |  |
| apotransferrin |  |  |  |  | effect on FI of F-LPS with CD14 when replacing LBP [5]: no effect was detected |
| lipid A [synthetic lipid A] |  |  |  |  | inhibition of FI increase by non-fluoresceinated LPS preparations (in words) [1]: dose dependent inhibition |
| lysozyme |  |  |  |  | effect on FI of F-LPS with CD14 when replacing LBP [5]: no effect was detected |
| LBP: LPS binding protein isolated from acute phase rabbit serum (protein, UniProt P17454 27-482, looked up) Lipopolysaccharide-binding …: TNPGLITRITDKGLEYAAREGLLALQRKLLEVTLPDSDGDFRIKHFGRAQYKFYSLKIPRFELLRGTLRPLPGQGLSLDISDAYIHVRGSWKVRKAFLRLKNSFDLYVKGLTISVHLVLGSESSGRPTVTTSSCSSDIQNVELDIEGDLEELLNLLQSQIDARLREVLESKICRQIEEAVTAHLQPYLQTLPVTTQIDSFAGIDYSLMEAPRATAGMLDVMFKGEIFPLDHRSPVDFLAPAMNLPEAHSRMVYFSISDYVFNTASLAYHKSGYWNFSITDAMVPADLNIRRTTKSFRPFVPLLANLYPNMNLELQGTVNSEQLVNLSTENLLEEPEMDIEALVVLPSSAREPVFRLGVATNVSATLTLNTRKITGFLKPGRLQVELKESKVGGFNVELLEALLNYYILNNLYPKVNEKLAHRFPLPLLRHIQLYDLLLQTHENFLLVGANIQYRRV |  |  |  |  | maximum FI ([5]; LBP 300 ng/ml, plateau at CD14 about 10 ug/ml): greater than 90,000 fluorescence units |
